Experimental findings from publication PMC3394726 (PLoS ONE, 2012) are described below.

For the test, the target named is T1, human complement C1q (human, UniProt P02745;P02746;P02747).
T1 construct: source: purified from human plasma; endogenous, normal human serum (NHS); copies: + +
Briefly: ELISA; SMSB3 or SMSB4 coated at 10 µg/ml; serial dilutions of normal human serum (0-100%) for 10, 20, 40 or 60 min at 37°C; bound complement factors detected with specific antibodies. The settings on record: one partner purified. A general note: ELISA stands for enzyme-linked immunosorbent assay.

T1 sequence (P02745 23-245, chain 1 of 3): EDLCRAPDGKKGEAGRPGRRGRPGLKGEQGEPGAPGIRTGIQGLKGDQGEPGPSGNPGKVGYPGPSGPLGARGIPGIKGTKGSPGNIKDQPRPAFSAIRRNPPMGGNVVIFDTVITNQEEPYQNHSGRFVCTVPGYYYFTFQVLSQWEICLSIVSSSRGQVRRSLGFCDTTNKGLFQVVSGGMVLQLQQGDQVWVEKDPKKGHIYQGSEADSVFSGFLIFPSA
T1 sequence (P02746 28-253, chain 2 of 3): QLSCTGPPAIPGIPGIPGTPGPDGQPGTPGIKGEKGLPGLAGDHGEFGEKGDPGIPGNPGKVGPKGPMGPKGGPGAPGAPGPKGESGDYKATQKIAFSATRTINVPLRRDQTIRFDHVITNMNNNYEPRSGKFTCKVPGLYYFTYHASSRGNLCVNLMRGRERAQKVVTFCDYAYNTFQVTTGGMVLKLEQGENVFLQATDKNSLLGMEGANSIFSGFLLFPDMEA
T1 sequence (P02747 29-245, chain 3 of 3): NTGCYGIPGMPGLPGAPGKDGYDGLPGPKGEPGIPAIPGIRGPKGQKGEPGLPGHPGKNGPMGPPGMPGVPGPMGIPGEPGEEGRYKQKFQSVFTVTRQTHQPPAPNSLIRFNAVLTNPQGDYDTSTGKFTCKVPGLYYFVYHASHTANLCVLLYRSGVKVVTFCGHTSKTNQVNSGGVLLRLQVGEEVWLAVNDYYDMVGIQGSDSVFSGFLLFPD

B1: scabies mite serpin SMSB4, wild type (natural protein)
chain: KPQHHSQSHQQPVLASDPNEDPLKALNLLQQQKQFTEHFFQQNNEKLNLLGGQEIIKCFDVNFTSNVLNNIDHISKIMIDGSRHFGLRLFQILNLFEPKTSSPGLVYSPISVWSTLILTYLGSDGVTEQELSQKLKLNQLPKPLVALAYRSLKWWKDFNVLKLMQNHTDATQVCSANKLYINDHLLVKDCFRTIFGDEIEMKSFSSRPQESLSEINDWVRVQTQGHIPNLLGPESISSNTNIVMINAVYFKSFWAQQFDSSKTKKQRFYVSMNEELEADMMTMDSVSVMYGISEELRASAVEIPYSNPDYSFLIILPDITRSLDSMIRTLTWNKIQLLLQNMYDDEVKLMIPKFRSEQEFELAGPLFSLGIKKLFDPRYANLNSIFMNSNNSRVALDSVIHKSFISVDEEGTEAAAATAVIFARSGRPAFPTEFIADRPFLYIIRDVSSNQLLFIGTVRRPYASQAIVA
notes: also called SMB4; SMSB4/wt
In the case of B1, the binding result is “binds”.
